From patent EP4631959A2, “NOVEL MINIGASTRIN-DERIVED CHOLECYSTOKININ 2 RECEPTOR BINDING MOLECULES FOR IMAGING AND TARGETED RADIOTHERAPY” (priority 2022, dated 2024)
Like-named read-outs stand apart in the source and are kept apart here. Starred links: 1 amine or outer side, 2 acyl side, 3 side chain; linkers in the order of their positions; H or OH if unused. Non-standard residues stand in square brackets, D forms with d. Residues, ends and D or L forms follow the SMILES beside them. *: point of attachment. Benzoyl(4-SiFtBu2) = CC(C)(C)[Si](F)(c1ccc(C(=O)*)cc1)C(C)(C)C; DOTA = O=C(O)CN1CCN(CC(=O)O)CCN(CC(=O)*)CCN(CC(=O)O)CC1; PEG12 = NCCOCCOCCOCCOCCOCCOCCOCCOCCOCCOCCOCCOCCC(=O)O; d(γGlu) = O=C(O)[C@@H](CCC(=O)[*:2])N[*:1]; PEG8 = NCCOCCOCCOCCOCCOCCOCCOCCOCCC(=O)O; 1Nal = N[C@@H](Cc1cccc2ccccc12)C(=O)O; Hyp = O=C(O)[C@@H]1C[C@@H](O)CN1; dCit = NC(=O)NCCC[C@@H](N)C(=O)O; NMeNle = CCCC[C@H](NC)C(=O)O; PEG4 = NCCOCCOCCOCCOCCC(=O)O; dDap = NC[C@@H](N)C(=O)O

How the values were obtained:
CCK-2R = molecular target: T1, CCK-2R (Rattus norvegicus, UniProt P30553); experiment: Determination of IC50: CCK-2R affinity on AR4-2J cells, competition with [^177Lu]Lu-DOTA-PP-F11N; format: binding
T1 construct: The CCK-2R expressing rat pancreatic tumor cells AR4-2J; host or cells: AR4-2J rat pancreatic tumor cells
T1 sequence (P30553 1-452): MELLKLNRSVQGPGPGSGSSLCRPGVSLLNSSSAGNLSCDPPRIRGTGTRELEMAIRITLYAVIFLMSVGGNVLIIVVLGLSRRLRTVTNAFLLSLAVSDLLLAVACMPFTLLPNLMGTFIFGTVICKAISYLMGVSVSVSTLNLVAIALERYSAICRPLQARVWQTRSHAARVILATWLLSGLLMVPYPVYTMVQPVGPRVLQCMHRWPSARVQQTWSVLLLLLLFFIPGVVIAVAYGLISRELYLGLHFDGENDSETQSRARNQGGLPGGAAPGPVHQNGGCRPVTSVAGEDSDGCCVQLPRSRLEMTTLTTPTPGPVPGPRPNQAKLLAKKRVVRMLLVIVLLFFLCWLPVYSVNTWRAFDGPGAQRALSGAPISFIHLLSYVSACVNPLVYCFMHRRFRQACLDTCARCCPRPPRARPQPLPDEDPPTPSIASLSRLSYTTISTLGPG
Summary of the method: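 Competitive displacement of 0.3 pmol/well [177Lu]Lu-DOTA-PP-F11N by compounds (10^-10 to 10^-4 M) on AR4-2J cells in BSA-supplemented medium, 3 h at 37 °C. Free label was collected from medium plus PBS rinse, and cell-bound label was recovered with 1 M NaOH, both measured by γ-counter. Each IC50 was determined twice, in triplicate.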

[1] = n-Octanol-PBS distribution coefficient (logD7.4); format: physicochemical; conditions: pH = 7.4, ^177Lu-labeled
Protocol: Approximately 1 MBq of the labeled tracer was dissolved in 1 mL of a 1/1 mixture (v/v) of phosphate buffered saline (PBS, pH = 7.4) and n-octanol in an Eppendorf tube (1.5 mL). After vigorous mixing of the suspension for 3 min at rt, the vial was centrifuged at 9,000 rpm for 5 min (Biofuge 15, Heraeus Sepatech, Osterode, Germany) and 200 µL aliquots of both layers were measured in a γ-counter. The experiment was repeated at least five times.

[2] = molecular target: T2, Human serum albumin (HSA) (Homo sapiens, UniProt P02768); experiment: Determination of HSA binding on a Chiralpak HSA column; format: in vitro ADME; conditions: Tab. 8; metal not stated (Fig. 18: ^natLu)
T2 construct: purchased Daicel, Tokyo, Japan H13H-2433
T2 sequence (P02768 25-609): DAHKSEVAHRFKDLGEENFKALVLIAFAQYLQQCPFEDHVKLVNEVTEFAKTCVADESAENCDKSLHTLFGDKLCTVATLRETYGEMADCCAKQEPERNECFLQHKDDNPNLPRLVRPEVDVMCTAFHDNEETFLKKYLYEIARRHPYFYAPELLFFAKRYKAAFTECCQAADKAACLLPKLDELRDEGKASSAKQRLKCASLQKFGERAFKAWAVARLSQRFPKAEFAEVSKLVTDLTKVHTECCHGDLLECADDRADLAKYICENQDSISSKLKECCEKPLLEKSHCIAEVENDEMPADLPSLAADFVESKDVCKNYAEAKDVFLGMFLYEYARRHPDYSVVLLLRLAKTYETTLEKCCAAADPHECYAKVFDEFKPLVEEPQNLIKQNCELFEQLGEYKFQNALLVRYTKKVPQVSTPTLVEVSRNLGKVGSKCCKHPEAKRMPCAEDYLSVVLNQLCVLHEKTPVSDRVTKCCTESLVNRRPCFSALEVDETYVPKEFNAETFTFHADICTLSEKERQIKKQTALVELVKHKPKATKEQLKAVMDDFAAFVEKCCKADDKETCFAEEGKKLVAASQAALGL
Protocol: Human serum albumin (HSA) binding of the CCK-2R-targeted compounds was determined as reported by Valko et al., using a Chiralpak HSA column (50 x 3 mm, 5 µm, H13H-2433, Daicel, Tokyo, Japan) at a constant flow rate of 0.5 mL/min at rt. Therefore, an aq. solution of NH4OAc (pH = 6.9, 50 mM) as mobile phase A and isopropanol as mobile phase B were freshly prepared. In order to calibrate the column prior to the experiments, the retention times of nine reference substances with a HSA binding in the range of 13 to 99% were determined using a gradient of 100% A (0 to 3 min), followed by 80% A (3 to 40 min). Furthermore, all substances tested, were dissolved in a mixture (1/1, v/v) of A and B reaching a final concentration of 0.5 mg/mL. The HSA binding of all rhCCK ligands tested, was determined using the same gradient as for the calibration probes. The non-linear regression of the calibration experiments and the CCK-2R ligands (Fig. 29) was established using the OriginPro 2016G software (Northampton, United States).

[3] = AR4-2J cells; ^natLu-labeled; read-out: IC50 [nM] (n = 3), ^natLu-labeled
[4] = read-out: IC50 [nM] (n = 3), ^natLu-labeled; AR4-2J cells; ^natLu-labeled

SMILES | IC50 (CCK-2R; [3]) [nM] | logD7.4 (n ≥ 5), ^177Lu-labeled [1] | HSA binding [%] [2] [%] | logD7.4 (n ≥ 5), ^177Lu-labeled ([1]; listed as [^nat/177Lu]Lu-DOTA-rhCCK-75) | logD7.4 (n ≥ 5), ^177Lu-labeled ([1]; listed as [^nat/177Lu]Lu-DOTA-rhCCK-76) | IC50 (CCK-2R; [4]) [nM]
CCCC[C@@H](C(=O)N[C@@H](CC(=O)O)C(=O)N[C@@H](Cc1cccc2ccccc12)C(N)=O)N(C)C(=O)[C@H](Cc1c[nH]c2ccccc12)NC(=O)CCOCCOCCOCCOCCNC(=O)CC[C@@H](NC(=O)CCOCCOCCOCCOCCOCCOCCOCCOCCNC(=O)CC[C@@H](NC(=O)[C@@H](CNC(=O)c1ccc([Si](F)(C(C)(C)C)C(C)(C)C)cc1)NC(=O)CN1CCN(CC(=O)O)CCN(CC(=O)O)CCN(CC(=O)O)CC1)C(=O)O)C(=O)O [DOTA-rhCCK-70, DOTA-dap(SiFA)-γ-glu-(PEG7-γ-glu-(PEG)3-Trp-(N-Me)Nle-Asp-1-Nal-NH2] | 12.6 ± 2 | −1.67 ± 0.08 | 89.3 |  |  | 
CCCC[C@@H](C(=O)N[C@@H](CC(=O)O)C(=O)N[C@@H](Cc1cccc2ccccc12)C(N)=O)N(C)C(=O)[C@H](Cc1c[nH]c2ccccc12)NC(=O)CCOCCOCCOCCOCCNC(=O)CC[C@@H](NC(=O)CCOCCOCCOCCOCCOCCOCCOCCOCCNC(=O)CC[C@@H](NC(=O)[C@@H](CNC(=O)C[N+](C)(C)Cc1ccc([Si](F)(C(C)(C)C)C(C)(C)C)cc1)NC(=O)CN1CCN(CC(=O)O)CCN(CC(=O)O)CCN(CC(=O)O)CC1)C(=O)O)C(=O)O [DOTA-rhCCK-71, DOTA-dap(SiFAlin)-γ-glu-(PEG)7-γ-glu-(PEG)3-Trp-(N-Me)Nle-Asp-1-Nal-NH2] | 13.3 ± 1.3 | −1.63 ± 0.06 | 89.1 |  |  | 
CCCC[C@@H](C(=O)N[C@@H](CC(=O)O)C(=O)N[C@@H](Cc1cccc2ccccc12)C(N)=O)N(C)C(=O)[C@H](Cc1c[nH]c2ccccc12)NC(=O)CCOCCOCCOCCOCCNC(=O)CC[C@@H](NC(=O)CCOCCOCCOCCOCCOCCOCCOCCOCCNC(=O)CC[C@@H](NC(=O)[C@@H](CNC(=O)c1cc(C(=O)O)cc([Si](F)(C(C)(C)C)C(C)(C)C)c1)NC(=O)CN1CCN(CC(=O)O)CCN(CC(=O)O)CCN(CC(=O)O)CC1)C(=O)O)C(=O)O [DOTA-rhCCK-72, DOTA-dap(SiFA-ipa)-γ-glu-(PEG)7-γ-glu-(PEG)3-Trp-(N-Me)Nle-Asp-1-Nal-NH2] | 52.3 ± 6.2 | −2.32 ± 0.03 | 89.3 |  |  | 
CCCC[C@@H](C(=O)N[C@@H](CC(=O)O)C(=O)N[C@@H](Cc1cccc2ccccc12)C(N)=O)N(C)C(=O)[C@H](Cc1c[nH]c2ccccc12)NC(=O)CCOCCOCCOCCOCCNC(=O)CC[C@@H](NC(=O)CCOCCOCCOCCOCCOCCOCCOCCOCCNC(=O)[C@@H](CNC(=O)c1ccc([Si](F)(C(C)(C)C)C(C)(C)C)cc1)NC(=O)CN1CCN(CC(=O)O)CCN(CC(=O)O)CCN(CC(=O)O)CC1)C(=O)O [DOTA-rhCCK-73, DOTA-dap(SiFA)-(PEG)7-γ-glu-(PEG)3-Trp-(N-Me)Nle-Asp-1-Nal-NH2] ({DOTA}-[dDap](Benzoyl(4-SiFtBu2))[PEG8][d(γGlu)][PEG4]W[NMeNle]D[1Nal]-NH2) | 15.6 ± 0.7 | −1.02 ± 0.06 | 90.4 |  |  | 
CCCC[C@@H](C(=O)N[C@@H](CC(=O)O)C(=O)N[C@@H](Cc1cccc2ccccc12)C(N)=O)N(C)C(=O)[C@H](Cc1c[nH]c2ccccc12)NC(=O)CCOCCOCCOCCOCCNC(=O)CC[C@@H](NC(=O)CCOCCOCCOCCOCCOCCOCCOCCOCCOCCOCCOCCOCCNC(=O)[C@@H](CNC(=O)c1ccc([Si](F)(C(C)(C)C)C(C)(C)C)cc1)NC(=O)CN1CCN(CC(=O)O)CCN(CC(=O)O)CCN(CC(=O)O)CC1)C(=O)O [DOTA-rhCCK-74, DOTA-dap(SiFA)-(PEG)11-γ-glu-(PEG)3-Trp-(N-Me)Nle-Asp-1-Nal-NH2] ({DOTA}-[dDap](Benzoyl(4-SiFtBu2))[PEG12][d(γGlu)][PEG4]W[NMeNle]D[1Nal]-NH2) | 12.1 ± 1 | −1.19 ± 0.07 | 87.2 |  |  | 
CCCC[C@@H](C(=O)N[C@@H](CC(=O)O)C(=O)N[C@@H](Cc1cccc2ccccc12)C(N)=O)N(C)C(=O)[C@H](Cc1c[nH]c2ccccc12)NC(=O)CCOCCOCCOCCOCCNC(=O)CC[C@@H](NC(=O)CCOCCOCCOCCOCCOCCOCCOCCOCCOCCOCCOCCOCCNC(=O)CC[C@@H](NC(=O)[C@@H](CNC(=O)C[N+](C)(C)Cc1ccc([Si](F)(C(C)(C)C)C(C)(C)C)cc1)NC(=O)CN1CCN(CC(=O)O)CCN(CC(=O)O)CCN(CC(=O)O)CC1)C(=O)O)C(=O)O [DOTA-rhCCK-75, DOTA-dap(SiFAlin)-γ-glu-(PEG)11-γ-glu-(PEG)3-Trp-(N-Me)Nle-Asp-1-Nal-NH2] | 19.2 ± 1.6 | −1.15 ± 0.05 | 90.9 | -1.15 ± 0.05 |  | 
CCCC[C@@H](C(=O)N[C@@H](CC(=O)O)C(=O)N[C@@H](Cc1cccc2ccccc12)C(N)=O)N(C)C(=O)[C@H](Cc1c[nH]c2ccccc12)NC(=O)CCOCCOCCOCCOCCNC(=O)CC[C@@H](NC(=O)CCOCCOCCOCCOCCOCCOCCOCCOCCOCCOCCOCCOCCNC(=O)CC[C@@H](NC(=O)[C@@H](CNC(=O)c1ccc([Si](F)(C(C)(C)C)C(C)(C)C)cc1)NC(=O)CN1CCN(CC(=O)O)CCN(CC(=O)O)CCN(CC(=O)O)CC1)C(=O)O)C(=O)O [DOTA-rhCCK-76, DOTA-dap(SiFA)-γ-glu-(PEG)11-γ-glu-(PEG)3-Trp-(N-Me)Nle-Asp-1-Nal-NH2] | 14.2 ± 0.9 | −1.82 ± 0.09 | 86.2 |  | -1.82 ± 0.09 | 
CCCC[C@@H](C(=O)N[C@@H](CC(=O)O)C(=O)N[C@@H](Cc1cccc2ccccc12)C(N)=O)N(C)C(=O)[C@H](Cc1c[nH]c2ccccc12)NC(=O)CCOCCOCCOCCOCCNC(=O)CC[C@@H](NC(=O)[C@@H]1C[C@@H](O)CN1C(=O)[C@@H]1C[C@@H](O)CN1C(=O)[C@@H]1C[C@@H](O)CN1C(=O)CC[C@@H](NC(=O)[C@@H](CNC(=O)c1ccc([Si](F)(C(C)(C)C)C(C)(C)C)cc1)NC(=O)CN1CCN(CC(=O)O)CCN(CC(=O)O)CCN(CC(=O)O)CC1)C(=O)O)C(=O)O [DOTA-rhCCK-83, DOTA-dap(SiFA)-γ-glu-(Hyp)3-γ-glu-(PEG)3-Trp-(N-Me)Nle-Asp-1-Nal-NH2] ({DOTA}-[dDap](Benzoyl(4-SiFtBu2))[d(γGlu)][Hyp][Hyp][Hyp][d(γGlu)][PEG4]W[NMeNle]D[1Nal]-NH2) |  | −1.50 ± 0.05 | 93.4 |  |  | 10 ± 0.9
CCCC[C@@H](C(=O)N[C@@H](CC(=O)O)C(=O)N[C@@H](Cc1cccc2ccccc12)C(N)=O)N(C)C(=O)[C@H](Cc1c[nH]c2ccccc12)NC(=O)CCOCCOCCOCCOCCNC(=O)CC[C@@H](NC(=O)[C@@H]1C[C@@H](O)CN1C(=O)[C@@H]1C[C@@H](O)CN1C(=O)[C@@H]1C[C@@H](O)CN1C(=O)[C@@H](CCCNC(N)=O)NC(=O)[C@@H](CCCNC(N)=O)NC(=O)[C@@H](CCCNC(N)=O)NC(=O)CC[C@@H](NC(=O)[C@@H](CNC(=O)c1ccc([Si](F)(C(C)(C)C)C(C)(C)C)cc1)NC(=O)CN1CCN(CC(=O)O)CCN(CC(=O)O)CCN(CC(=O)O)CC1)C(=O)O)C(=O)O [DOTA-rhCCK-85, DOTA-dap(SiFA)-γ-glu-(cit)3-(Hyp)3-γ-glu-(PEG)3-Trp-(N-Me)Nle-Asp-1-Nal-NH2] ({DOTA}-[dDap](Benzoyl(4-SiFtBu2))[d(γGlu)][dCit][dCit][dCit][Hyp][Hyp][Hyp][d(γGlu)][PEG4]W[NMeNle]D[1Nal]-NH2) |  | −1.95 ± 0.09 | 90.3 |  |  | 12.9 ± 0.3
